Data: patent US5906819
One block for each substance: values may come before it.

Key:
[1] = biological target: T1, myosin light chain (chicken) (UniProt P02612)
T1 sequence: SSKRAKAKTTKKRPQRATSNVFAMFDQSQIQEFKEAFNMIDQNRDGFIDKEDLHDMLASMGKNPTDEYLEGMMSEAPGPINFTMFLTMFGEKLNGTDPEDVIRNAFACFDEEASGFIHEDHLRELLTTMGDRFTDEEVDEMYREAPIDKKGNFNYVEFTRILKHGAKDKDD

[2] = biological target: intact myosin (chicken)
[3] = biological target: bovine Rho-kinase (bovine)
[4] = biological target: bovine Rho-kinase (bovine); remark: listed apart in the source
[5] = biological target: bovine Rho-kinase (bovine); remark: listed apart in the source

Sequence of myosin light chain kinase (P11799 935-1906 limits assumed): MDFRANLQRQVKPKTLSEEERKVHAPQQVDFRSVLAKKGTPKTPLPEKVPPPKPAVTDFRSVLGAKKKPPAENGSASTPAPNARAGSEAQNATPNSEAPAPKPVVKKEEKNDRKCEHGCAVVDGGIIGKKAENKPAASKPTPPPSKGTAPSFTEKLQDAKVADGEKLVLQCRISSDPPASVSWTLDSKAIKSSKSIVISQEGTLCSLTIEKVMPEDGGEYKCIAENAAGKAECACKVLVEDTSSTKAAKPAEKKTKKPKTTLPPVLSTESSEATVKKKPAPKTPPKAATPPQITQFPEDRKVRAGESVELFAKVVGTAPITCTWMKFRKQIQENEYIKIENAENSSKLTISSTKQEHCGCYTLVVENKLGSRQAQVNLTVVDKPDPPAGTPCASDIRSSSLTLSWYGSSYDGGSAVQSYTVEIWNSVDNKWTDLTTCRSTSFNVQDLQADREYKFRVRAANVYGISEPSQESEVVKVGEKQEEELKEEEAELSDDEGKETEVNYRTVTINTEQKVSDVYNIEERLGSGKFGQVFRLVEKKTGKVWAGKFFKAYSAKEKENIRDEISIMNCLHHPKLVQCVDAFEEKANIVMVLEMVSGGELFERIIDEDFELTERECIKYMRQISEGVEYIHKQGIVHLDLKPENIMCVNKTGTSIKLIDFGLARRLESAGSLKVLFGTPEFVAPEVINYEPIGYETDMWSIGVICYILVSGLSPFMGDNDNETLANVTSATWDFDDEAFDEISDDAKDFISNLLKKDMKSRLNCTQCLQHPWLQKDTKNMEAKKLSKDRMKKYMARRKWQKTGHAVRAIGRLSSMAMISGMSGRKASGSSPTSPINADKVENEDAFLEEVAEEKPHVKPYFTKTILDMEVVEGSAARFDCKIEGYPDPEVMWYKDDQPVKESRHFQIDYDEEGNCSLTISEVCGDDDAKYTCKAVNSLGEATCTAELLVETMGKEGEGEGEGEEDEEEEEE

- apparent Km for myosin light chain [1]: 52.1 µM
Substance: myosin light chain kinase (from UniProt P11799-2) (enzyme)

- phosphorylation of the myosin light chain of intact myosin (mol of phosphate into 1 mol) [2]: 1
- apparent Km for myosin light chain, in the absence of GTPγS·GST-RhoA [1]: 12.6 µM
- apparent Km for myosin light chain, in the presence of GTPγS·GST-RhoA [1]: 2.6 µM
Substance: bovine Rho-kinase (enzyme)

- autophosphorylation of bovine Rho-kinase [3]: 2 times
- phosphorylation of rat myosin-binding subunit by bovine Rho-kinase [4]: 15 times
- phosphorylation of MBS-C by bovine Rho-kinase [5]: 5 times
Substance: GTPγS·GST-RhoA (from UniProt P61586)
